According to patent US20200347136A1, “CONSTRAINED CYCLIC PEPTIDES AS INHIBITORS OF THE CD2:CD58 PROTEIN-PROTEIN INTERACTION FOR TREATMENT OF DISEASES AND AUTOIMMUNE DISORDERS” (Board of Supervisors for the University of Louisiana System, priority 2019, published 2020):

Experiments:
[1] = target: CD58 expressed on OVCAR-3 and HFLS-RA cells (human) (UniProt P19256); experiment: cell adhesion inhibition (Jurkat CD2 / CD58 cells); OVCAR-3 cells
[2] = target: CD58 expressed on OVCAR-3 and HFLS-RA cells (human) (UniProt P19256); experiment: cell adhesion inhibition (Jurkat CD2 / CD58 cells); HFLS-RA cells

Chain of CD58 expressed on OVCAR-3 and HFLS-RA cells (human) (P19256 29-250): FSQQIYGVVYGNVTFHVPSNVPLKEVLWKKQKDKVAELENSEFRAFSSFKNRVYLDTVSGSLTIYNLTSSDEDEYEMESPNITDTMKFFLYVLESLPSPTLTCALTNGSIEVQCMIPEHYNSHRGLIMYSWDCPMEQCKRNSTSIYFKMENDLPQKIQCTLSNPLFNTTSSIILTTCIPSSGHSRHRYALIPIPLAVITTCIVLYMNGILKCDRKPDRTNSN

Substance	IC50 [1] [µM]	IC50 [2] [µM]
Control	> 100	> 100
SFTI-wt (control)	> 50	> 50
